The values that follow come from patent US20190085033A1 (published 2019).

The target in this test is BG505-gp120 10MUT-KO (HIV-1, strain BG505). The test can be described thus: SPR, monomeric gp120. (In SPR one partner is held on a chip, and binding of the other changes the refractive index at the surface.)

B1: PGT121 (antibody, V domains shown)
VH: QMQLQESGPGLVKPSETLSLTCSVSGASISDSYWSWIRRSPGKGLEWIGYVHKSGDTNYSPSLKSRVNLSLDTSKNQVSLSLVAATAADSGKYYCARTLHGRRIYGIVAFNEWFTYFYMDVWGNGTQVTVSS
VL: SDISVAPGETARISCGEKSLGSRAVQWYQHRAGQAPSLIIYNNQDRPSGIPERFSGSPDSPFGTTATLTITSVEAGDEADYYCHIWDSRVPTKWVFGGGTTLTVL
notes: also called mature PGT121
For orientation: Kd means the constant that tells how readily two partners part at equilibrium. Read a low Kd as tighter binding. For the molecule B1, the affinity, expressed as Kd, was 435 nM.
